In patent publication US20200207822A1, “PEPTIDE INHIBITORS OF INTERLEUKIN-23 RECEPTOR AND THEIR USE TO TREAT INFLAMMATORY DISEASES” (Protagonist Therapeutics, Inc., priority 2017, published 2020):
Positions of bridges follow the written chain, without caps; N, C: chain ends. Non-standard residues stand in square brackets, D forms with d. Groups on a side chain read outwards from the residue. 2Nal = N[C@@H](Cc1ccc2ccccc2c1)C(=O)O; AEF = NCCOc1ccc(C[C@H](N)C(=O)O)cc1; αMeL = CC(C)C[C@](C)(N)C(=O)O; Pen = CC(C)(S)[C@H](N)C(=O)O; dAbu = CC[C@@H](N)C(=O)O; Thp = NC1(C(=O)O)CCOCC1; Abu = CC[C@H](N)C(=O)O

T1: interleukin-23 receptor (IL-23R) (human, UniProt Q5VWK5 24-629)
T1 sequence (looked up): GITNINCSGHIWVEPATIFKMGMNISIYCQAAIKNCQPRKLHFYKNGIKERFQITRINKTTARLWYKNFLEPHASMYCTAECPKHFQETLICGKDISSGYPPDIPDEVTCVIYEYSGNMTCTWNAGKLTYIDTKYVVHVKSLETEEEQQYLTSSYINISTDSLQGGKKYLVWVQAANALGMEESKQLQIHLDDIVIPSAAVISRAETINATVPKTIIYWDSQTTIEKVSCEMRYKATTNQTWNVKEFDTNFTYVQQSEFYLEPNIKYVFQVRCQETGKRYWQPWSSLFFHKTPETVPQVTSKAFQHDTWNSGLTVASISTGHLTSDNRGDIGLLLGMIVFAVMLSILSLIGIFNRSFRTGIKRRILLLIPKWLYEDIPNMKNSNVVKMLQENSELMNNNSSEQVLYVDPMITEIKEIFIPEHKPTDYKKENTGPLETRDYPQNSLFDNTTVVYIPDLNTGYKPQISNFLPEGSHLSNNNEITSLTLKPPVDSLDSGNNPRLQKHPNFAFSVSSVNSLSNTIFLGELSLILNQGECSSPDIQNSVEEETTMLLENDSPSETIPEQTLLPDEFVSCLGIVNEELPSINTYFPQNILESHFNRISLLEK

B1: SEQ ID NO 147 (peptide)
peptide: XXQTWQCXXXENN
modifications: Ac-[(D)Arg]-cyclo[[Abu]-QTWQC]-[Phe[4-(2-aminoethoxy)]-[2-Nal]-[3-cyclohexyl-Ala]-ENN-NH2
B2: SEQ ID NO 153 (peptide)
peptide: XXQTWKCXXXENN
modifications: Ac-[(D)Arg]-cyclo[[Abu]-QTW-Lys(isoGlu-Palm)-C]-[Phe[4-(2-aminoethoxy)]-[2-Nal]-[4-amino-4-carboxy-tetrahydropyran]-ENN-NH2
B3: SEQ ID NO 170 (peptide)
peptide: XNTWKXXXXKNN
modifications: Ac-[Pen]-NTW-[Lys(Ac)]-[Pen]-[Phe[4-(2-aminoethoxy)]-[2-Nal]-[α-MeLeu]-[Lys(Ac)]-NN-NH2
B4: SEQ ID NO 174 (peptide)
peptide: XNTWQXXXXKNNX
modifications: Ac-[Pen]-NTWQ-[Pen]-[Phe[4-(2-aminoethoxy)]-[2-Nal]-[α-MeLeu]-[Lys(Ac)]-NN-[(D)Arg]-NH2
B5: SEQ ID NO 175 (peptide)
peptide: XNTWQXXXXKNNX
modifications: Ac-[Pen]-NTWQ-[Pen]-[Phe[4-(2-aminoethoxy)]-[2-Nal]-[α-MeLeu]-[Lys(Ac)]-NN-[(D)Ile]-NH2
B6: SEQ ID NO 177 (peptide)
peptide: XNTWQXXXXKNNX
modifications: Ac-[Pen]-NTWQ-[Pen]-[Phe[4-(2-aminoethoxy)]-[2-Nal]-[α-MeLeu]-[Lys(Ac)]-NN-[(D)Gln]-NH2
B7: SEQ ID NO 184 (peptide)
peptide: XNTWQXXXXKNNX
modifications: (Ac-[Pen]-NTWQ-[Pen]-[Phe(4-CONH2)]-[2-Nal]-[α-MeLeu]-[Lys(Ac)]-NN-[(D)Lys]-NH2)2-DIG
B8: SEQ ID NO 195 (peptide)
peptide: XNTWKXXXXKNNG
modifications: Ac-[Pen]-NTW-[Lys(Ac)]-[Pen]-[Phe[4-(2-aminoethoxy)]-[2-Nal]-[α-MeLeu]-[Lys(Ac)]-NNG-NH2
B9: SEQ ID NO 196 (peptide)
peptide: XNTWKXXXXKNNX
modifications: Ac-[Pen]-NTW-[Lys(Ac)]-[Pen]-[Phe[4-(2-aminoethoxy)]-[2-Nal]-[α-MeLeu]-[Lys(Ac)]-NN-[β-Ala]-NH2
B10: SEQ ID NO 197 (peptide)
peptide: XNTWKXXXXKNNX
modifications: Ac-[Pen]-NTW-[Lys(Ac)]-[Pen]-[Phe[4-(2-aminoethoxy)]-[2-Nal]-[α-MeLeu]-[Lys(Ac)]-NN-[Ahx]-NH2
B11: SEQ ID NO 198 (peptide)
peptide: XNTWKXXXXKNNX
modifications: Ac-[Pen]-NTW-[Lys(Ac)]-[Pen]-[Phe[4-(2-aminoethoxy)]-[2-Nal]-[α-MeLeu]-[Lys(Ac)]-NN-[Sar]-NH2
B12: SEQ ID NO 218 (peptide)
peptide: XNTWKXXXXKNNX
modifications: Ac-[Pen]-NTW-[Lys(Ac)]-[Pen]-[Phe[4-(2-aminoethoxy)]-[2-Nal]-[α-MeLeu]-[Lys(Ac-(D)Asn)]-NN-[(D)Ile]-NH2
B13: SEQ ID NO 138 (peptide)
peptide: XXQTWQCXXXENN
modifications: Ac-[(D)Arg]-cyclo[[Abu]-QTWQC]-[Phe[4-(2-aminoethoxy)]-[2-Nal]-[α-MeLeu]-ENN-NH2

These molecules were tested on IL-23R-expressing DB cells stimulated with IL-23 (pSTAT3 levels) (assay: DB cells IL23R pSTAT3 cell assay (Cisbio HTRF pSTAT3)). Details: Table E1, Pen-Pen disulfide peptides, IL-23 0.5 nM, 30 minutes at 37° C.
Format: cell-based, human
Excerpt: Human ELISA indicates the IL23-IL23R competitive binding assay described below, Rat ELISA indicates the rat IL-23R competitive binding ELISA assay described below, and pStat3HTRF indicates the DB cells IL-23R pSTAT3 cell assay described below. The peptides depicted in Table E1 are cyclized via a disulfide bridge formed between two Pen residues in these peptides. The peptides depicted in Table E2 are cyclized via a thioether bond between the indicated amino acid residues. Table E2 provides an illustrative structure depicting thioether cyclization, which is indicated in the table by the term “cyclo,” with the cyclic region bracketed immediately following the term “cyclo.” For certain peptides, the residue Abu is present where indicated, whereas in other embodiments, e.g., those related to the non-cyclized form, the Abu may be referred to as a hSer(Cl) or homoSer residue.
DB Cells IL23R pSTAT3 Cell Assay
IL-23 plays a central role in supporting and maintaining Th17 differentiation in vivo. […] This cell assay examines the levels of pSTAT3 in IL-23R-expressing DB cells when stimulated with IL-23 in the presence of test compounds.

| Molecule | IC50 |
| --- | --- |
| 8 (Ac-[Pen]NTWQ[Pen][AEF]W[Thp]K(Ac)NN-NH2; disulfide 1-6 (inferred)) [compound 8] | 1 to 10 nM |

Same assay, conditions: Table E2, thioether peptides, IL-23 0.5 nM, 30 minutes at 37° C.

| Molecule | IC50 |
| --- | --- |
| 77 (Ac-[dR][Abu]QTWQC[AEF][2Nal][Thp]EDD-NH2; thioether 2-7) [compound 77] | 10 to 100 nM |
| 74 (XXQTWQCXXXEDN; MOD_RES (1)..(1) D-form arginine; MOD_RES (2)..(2) Abu; (2)..(7) residues cyclosized; MOD_RES (8)..(8) 4-(2-aminoethoxy)-L-phenylalanine; MOD_RES (9)..(9) L-2-Napthylalanine; MOD_RES (10)..(10) 4-amino-4-carboxy-tetrahydropyran) [compound 74] | 10 to 100 nM |

Same assay, conditions: Table L3 (E3), additional peptide inhibitors, IL-23 0.5 nM, 30 minutes at 37° C.

| Molecule | IC50 |
| --- | --- |
| 182 (Ac-[Pen]NTWQ[Pen][4‑Carbamoyl‑L‑phenylalanine][2Nal][αMeL]K(Ac)NNK(Ac)-NH2; disulfide 1-6 (inferred)) [compound 182] | 1 to 10 nM |
| 154 (XXQTWKCXXXENN; MOD_RES (1)..(1) D-form arginine; MOD_RES (2)..(2) Abu; (2)..(7) residues cyclosized; MOD_RES (6)..(6) PEG12 conjugation; MOD_RES (8)..(8) 4-(2-aminoethoxy)-L-phenylalanine; MOD_RES (9)..(9) L-2-Napthylalanine; MOD_RES (10)..(10) 4-amino-4-carboxy-tetrahydropyran) [compound 154] | 1 to 10 nM |
| 160 (XNTWQXXXXKNNW; MOD_RES (1)..(1) L-Penicillamine; MOD_RES (6)..(6) L-Penicillamine; MOD_RES (7)..(7) 4-(2-aminoethoxy)-L-phenylalanine; MOD_RES (8)..(8) L-2-Napthylalanine; MOD_RES (9)..(9) alpha-methyl-L-Leucine; MOD_RES (10)..(10) …ON) [compound 160] | 1 to 10 nM |

What follows are molecules tested against T1, interleukin-23 receptor (IL-23R) (assay: cell-based or functional assay). Details: not given.

| Molecule | IC50, pStat3 HTRF (nM) |
| --- | --- |
| B1 | < 1 nM |
| XXQTWQCXXXENN (Ac-[(D)Arg]-cyclo[[Abu]-QTWQC]-[Phe[4-(2-aminoethoxy)]-[2-Nal]-[Aib]-ENN-NH2) [SEQ ID NO 148] | < 1 nM |
| B2 | > 100 nM |
| XNTWQXXXXKNNY (Ac-[Pen]-NTWQ-[Pen]-[Phe[4-(2-aminoethoxy)]-[2-Nal]-[α-MeLeu]-[Lys(Ac)]-NNY-NH2) [SEQ ID NO 159] | < 1 nM |
| XNTWQXXXXKNNR (Ac-[Pen]-NTWQ-[Pen]-[Phe[4-(2-aminoethoxy)]-[2-Nal]-[α-MeLeu]-[Lys(Ac)]-NNR-NH2) [SEQ ID NO 161] | < 1 nM |
| XNTWQXXXXKNNQ (Ac-[Pen]-NTWQ-[Pen]-[Phe[4-(2-aminoethoxy)]-[2-Nal]-[α-MeLeu]-[Lys(Ac)]-NNQ-NH2) [SEQ ID NO 164] | < 1 nM |
| XNTWQXXXXKNNS (Ac-[Pen]-NTWQ-[Pen]-[Phe[4-(2-aminoethoxy)]-[2-Nal]-[α-MeLeu]-[Lys(Ac)]-NNS-NH2) [SEQ ID NO 165] | < 1 nM |
| B3 | < 1 nM |
| B4 | < 1 nM |
| B5 | < 1 nM |
| B6 | < 1 nM |
| B7 | < 1 nM |
| B8 | < 1 nM |
| B9 | < 1 nM |
| B10 | < 1 nM |
| B11 | < 1 nM |
| B12 | < 1 nM |

| Molecule | IC50, pStat3 HTRF (nM) |
| --- | --- |
| Ac-K([Glu-Ac])[Pen]NTWK(Ac)[Pen][AEF][2Nal][αMeL]K(Ac)NN-NH2 (disulfide 2-7 (inferred)) [SEQ ID NO 223] | < 1 nM |
| Ac-K([Phe-Ac])[Pen]NTWK(Ac)[Pen][AEF][2Nal][αMeL]K(Ac)NN-NH2 (disulfide 2-7 (inferred)) [SEQ ID NO 224] | < 1 nM |
| Ac-K([Tyr-Ac])[Pen]NTWK(Ac)[Pen][AEF][2Nal][αMeL]K(Ac)NN-NH2 (disulfide 2-7 (inferred)) [SEQ ID NO 225] | < 1 nM |
| Ac-K([Ser-Ac])[Pen]NTWK(Ac)[Pen][AEF][2Nal][αMeL]K(Ac)NN-NH2 (disulfide 2-7 (inferred)) [SEQ ID NO 226] | < 1 nM |
| Ac-K([Arg-Ac])[Pen]NTWK(Ac)[Pen][AEF][2Nal][αMeL]K(Ac)NN-NH2 (disulfide 2-7 (inferred)) [SEQ ID NO 227] | < 1 nM |
| Ac-K([Leu-Ac])[Pen]NTWK(Ac)[Pen][AEF][2Nal][αMeL]K(Ac)NN-NH2 (disulfide 2-7 (inferred)) [SEQ ID NO 228] | < 1 nM |
| Ac-K([Pro-Ac])[Pen]NTWK(Ac)[Pen][AEF][2Nal][αMeL]K(Ac)NN-NH2 (disulfide 2-7 (inferred)) [SEQ ID NO 229] | < 1 nM |
| Ac-[dK]([Glu-Ac])[Pen]NTWK(Ac)[Pen][AEF][2Nal][αMeL]K(Ac)NN-NH2 (disulfide 2-7 (inferred)) [SEQ ID NO 230] | < 1 nM |
| Ac-[dK]([Phe-Ac])[Pen]NTWK(Ac)[Pen][AEF][2Nal][αMeL]K(Ac)NN-NH2 (disulfide 2-7 (inferred)) [SEQ ID NO 231] | < 1 nM |
| Ac-[dK]([Tyr-Ac])[Pen]NTWK(Ac)[Pen][AEF][2Nal][αMeL]K(Ac)NN-NH2 (disulfide 2-7 (inferred)) [SEQ ID NO 232] | < 1 nM |
| Ac-[dK]([Ser-Ac])[Pen]NTWK(Ac)[Pen][AEF][2Nal][αMeL]K(Ac)NN-NH2 (disulfide 2-7 (inferred)) [SEQ ID NO 233] | < 1 nM |
| Ac-[dK]([Arg-Ac])[Pen]NTWK(Ac)[Pen][AEF][2Nal][αMeL]K(Ac)NN-NH2 (disulfide 2-7 (inferred)) [SEQ ID NO 234] | < 1 nM |
| Ac-[dK]([Leu-Ac])[Pen]NTWK(Ac)[Pen][AEF][2Nal][αMeL]K(Ac)NN-NH2 (disulfide 2-7 (inferred)) [SEQ ID NO 235] | < 1 nM |
| Ac-[dK]([Pro-Ac])[Pen]NTWK(Ac)[Pen][AEF][2Nal][αMeL]K(Ac)NN-NH2 (disulfide 2-7 (inferred)) [SEQ ID NO 236] | < 1 nM |
| Ac-[Pen]NTWQ[dAbu][AEF][2Nal][αMeL]K(Ac)NN-NH2 (thioether 1-6) [SEQ ID NO 137] | > 100 nM |
| B13 | < 1 nM |
